This assay has as its target human PD-L1 (programmed death-ligand 1) (human) (UniProt Q9NZQ7). Description: cell-based or functional assay.
Sequence of UniProt Q9NZQ7 (Q9NZQ7 19-290): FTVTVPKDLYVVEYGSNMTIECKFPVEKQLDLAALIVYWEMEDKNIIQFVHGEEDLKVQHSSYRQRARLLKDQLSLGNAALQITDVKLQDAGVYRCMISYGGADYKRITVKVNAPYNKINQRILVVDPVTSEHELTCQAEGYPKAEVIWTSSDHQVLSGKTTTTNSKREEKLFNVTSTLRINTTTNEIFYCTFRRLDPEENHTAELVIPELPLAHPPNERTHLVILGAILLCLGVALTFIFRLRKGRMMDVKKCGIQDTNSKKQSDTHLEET

Untargeted (BcII10 VHH) chimera showed an STAT1 phosphorylation (phospho STAT1 MFI, FACS) in MDA-MB-321 cells of 100 ng/mL.
